The test concerns the target Fluorescently labeled ATS (intracellular segment) of PfEMP1 variant PF08_0141, full-length segment (P. falciparum). Briefly: fluorescence polarisation.

With “PFE1605w PHIST domain (residues 122–335) (domain or fragment)”, the Kd (as a rule, the free concentration of one partner at which half of the binding sites on the other are occupied at equilibrium, for simple one-to-one binding) was found to be 5 µM.

(Values after PMC4202109.)
